# Reference: IntAct's records for PubMed 19666841
# B1: Glycerol-3-phosphate dehydrogenase 1-like protein (Homo sapiens), Q8N335 (parent)
# chain: MAAAPLKVCIVGSGNWGSAVAKIIGNNVKKLQKFASTVKMWVFEETVNGRKLTDIINNDHENVKYLPGHKLPENVVAMSNLSEAVQDADLLVFVIPHQFIHRICDEITGRVPKKALGITLIKGIDEGPEGLKLISDIIREKMGIDISVLMGANIANEVAAEKFCETTIGSKVMENGLLFKELLQTPNFRITVVDDADTVELCGALKNIVAVGAGFCDGLRCGDNTKAAVIRLGLMEMIAFARIFCKGQVSTATFLESCGVADLITTCYGGRNRRVAEAFARTGKTIEELEKEMLNGQKLQGPQTSAEVYRILKQKGLLDKFPLFTAVYQICYESRPVQEMLSCLQSHPEHT
# Variants of: B1
# Conditions: with scn5a_human SCN5A
row,Variant,effect of a mutation on the interaction
1,MAAAPLKVCIVGSGNWGSAVAKIIGNNVKKLQKFASTVKMWVFEETVNGRKLTDIINNDHENVKYLPGHKLPENVVAMSNLSEAVQDADLLVFVIPHQFIHRICDEITGRVPKKALGITLIKGIDEGPEGLKLISDIIREKMGIDISVLMGANIANEVAAEKFCETTIGSKVMENGLLFKELLQTPNFRITVVDDADTVELCGALKNIVAVGAGFCDGLRCGDNTKAAVIRLGLMEMIAFARIFCKGQVSTATFLESCGVADLITTCYGGRNRRVAEAFVRTGKTIEELEKEMLNGQKLQGPQTSAEVYRILKQKGLLDKFPLFTAVYQICYESRPVQEMLSCLQSHPEHT [A280V],with no effect
2,MAAAPLKVCIVGSGNWGSAVAKIIGNNVKKLQKFASTVKMWVFEETVNGRKLTDIINNDHENVKYLPGHKLPENVVAMSNLSKAVQDADLLVFVIPHQFIHRICDEITGRVPKKALGITLIKGIDEGPEGLKLISDIIREKMGIDISVLMGANIANEVAAEKFCETTIGSKVMENGLLFKELLQTPNFRITVVDDADTVELCGALKNIVAVGAGFCDGLRCGDNTKAAVIRLGLMEMIAFARIFCKGQVSTATFLESCGVADLITTCYGGRNRRVAEAFARTGKTIEELEKEMLNGQKLQGPQTSAEVYRILKQKGLLDKFPLFTAVYQICYESRPVQEMLSCLQSHPEHT [E83K],with no effect
